This assay deals with T1, human EpCAM full-length protein (on MCF-7 and A431 cells) (human, UniProt P16422 24-314).
T1 construct: Endogenous EpCAM on the cell lines MCF-7 and A431 (ATCC); also called CD326; epithelial cell adhesion molecule
T1 sequence: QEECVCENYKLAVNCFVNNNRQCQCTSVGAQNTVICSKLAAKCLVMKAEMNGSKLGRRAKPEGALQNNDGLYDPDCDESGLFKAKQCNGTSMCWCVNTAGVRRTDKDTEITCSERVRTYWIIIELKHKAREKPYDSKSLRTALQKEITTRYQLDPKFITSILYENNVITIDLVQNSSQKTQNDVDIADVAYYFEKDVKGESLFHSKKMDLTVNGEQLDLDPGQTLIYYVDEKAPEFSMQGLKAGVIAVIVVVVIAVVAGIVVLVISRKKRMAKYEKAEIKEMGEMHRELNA
In words: flow cytometry (FACS) on MCF-7 and A431 cells, Alexa Fluor 488 goat anti-human IgG detection.

B1: fully human antibody h1907 (antibody, human IgG1, kappa, V domains shown)
VH: QVTLKESGPTLVKPTQTLTLTCTFSGFSLSTSGVAVGWIRQPPGKALEWLALIYWDADTRYSPSLKSRLTITKDTSKNQVVLTMTNMDPVDTATYYCAHRPHGSGSYYAFDYWGQGILVTVSS
VL: DIVMTQSPSSLSASVGDRVTISCRASQNIRNYLNWYQHRPGEAPKLLISGVSRLQNGVPSRFSGSGSGTDFTLTIRSLQSEDFATYYCQQSYINWTFGQGTKVEIKR
notes: Complete antibody VH-CH1-FC/VL-CL built from a phage scFv
Turning to B1, the binding result is reported as “binds”.

B2: fully human antibody h1905 (antibody, human IgG1, kappa, V domains shown)
VH: QMQLVQSGAEVKKPGASVKVSCKASGYTFTSYDINWVRQATGQGLEWMGWMNPNSGNTGYAQKFQGRVTMTRNTSISTAYMELSSLRSEDTAVYYCARGVVVVVAATRGHYYYYYGMDVWGQGTTVTVSS
VL: DIQMTQSPSSLSASIGDRVSMTCRASQSVTKYLNWYQQTPGKPPKLLIFSASHLQTGVPSRFSGSGSGTDFTLTIDSLQPEDVATYYCQQSYSTPFTFGQGTKVEIKR
notes: as for B1
As for B2, the binding result was “binds”.

These data come from patent WO2020216210A1 (dated 2020).
